From article PMC7264293, “Multi-site-mediated entwining of the linear WIR-motif around WIPI β-propellers for autophagy” (Nature Communications, 2020)

molecular target: GB1-tagged ATG2A short fragment (1374-1404), the WIR-peptide (UniProt Q2TAZ0); assay: ITC
Sequence (Q2TAZ0 1374-1404): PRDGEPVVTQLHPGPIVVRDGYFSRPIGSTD

Sequence of WIPI3-Δloop, Q5MNZ6 R62A (Q5MNZ6 other isoform, or with tags, fused parts or gaps R62A | mutant): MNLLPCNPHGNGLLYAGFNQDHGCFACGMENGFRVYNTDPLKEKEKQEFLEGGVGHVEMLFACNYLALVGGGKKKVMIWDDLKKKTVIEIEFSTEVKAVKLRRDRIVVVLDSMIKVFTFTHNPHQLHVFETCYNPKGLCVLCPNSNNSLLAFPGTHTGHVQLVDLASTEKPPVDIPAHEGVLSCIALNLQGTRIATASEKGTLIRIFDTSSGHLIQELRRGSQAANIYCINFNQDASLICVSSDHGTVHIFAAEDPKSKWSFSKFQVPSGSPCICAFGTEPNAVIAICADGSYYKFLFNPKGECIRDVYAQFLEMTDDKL
Sequence of WIPI3-Δloop, Q5MNZ6 F98A (Q5MNZ6 other isoform, or with tags, fused parts or gaps F98A | mutant): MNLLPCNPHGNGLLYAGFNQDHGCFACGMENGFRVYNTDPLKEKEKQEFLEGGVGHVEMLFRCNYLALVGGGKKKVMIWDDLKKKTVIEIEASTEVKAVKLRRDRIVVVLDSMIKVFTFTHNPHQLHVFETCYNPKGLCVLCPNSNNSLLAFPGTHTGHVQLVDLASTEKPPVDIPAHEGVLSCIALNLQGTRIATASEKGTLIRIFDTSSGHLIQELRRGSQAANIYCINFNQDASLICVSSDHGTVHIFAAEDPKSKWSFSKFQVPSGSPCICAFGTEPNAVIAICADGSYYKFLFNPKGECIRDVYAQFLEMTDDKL
Sequence of WIPI3-Δloop, Q5MNZ6 F125A (Q5MNZ6 other isoform, or with tags, fused parts or gaps F125A | mutant): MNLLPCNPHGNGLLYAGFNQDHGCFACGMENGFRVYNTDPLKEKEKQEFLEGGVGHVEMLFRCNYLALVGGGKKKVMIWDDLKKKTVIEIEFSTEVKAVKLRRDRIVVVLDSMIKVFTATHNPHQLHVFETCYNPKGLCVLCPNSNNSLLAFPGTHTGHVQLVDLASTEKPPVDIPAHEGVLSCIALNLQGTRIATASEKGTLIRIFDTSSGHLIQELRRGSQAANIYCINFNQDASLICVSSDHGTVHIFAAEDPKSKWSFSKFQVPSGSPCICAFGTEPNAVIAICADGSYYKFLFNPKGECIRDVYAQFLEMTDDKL
Sequence of WIPI3-Δloop, Q5MNZ6 I96A (Q5MNZ6 other isoform, or with tags, fused parts or gaps I96A | mutant): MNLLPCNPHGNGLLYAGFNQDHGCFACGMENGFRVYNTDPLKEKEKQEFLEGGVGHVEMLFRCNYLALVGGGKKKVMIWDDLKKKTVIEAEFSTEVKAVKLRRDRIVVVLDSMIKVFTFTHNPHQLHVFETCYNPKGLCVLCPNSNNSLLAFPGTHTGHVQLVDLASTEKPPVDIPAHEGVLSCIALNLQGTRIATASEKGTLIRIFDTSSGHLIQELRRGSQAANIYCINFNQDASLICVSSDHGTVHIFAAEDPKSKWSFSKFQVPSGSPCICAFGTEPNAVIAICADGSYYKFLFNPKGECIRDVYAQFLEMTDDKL
Sequence of WIPI3-Δloop, Q5MNZ6 Y65A (Q5MNZ6 other isoform, or with tags, fused parts or gaps Y65A | mutant): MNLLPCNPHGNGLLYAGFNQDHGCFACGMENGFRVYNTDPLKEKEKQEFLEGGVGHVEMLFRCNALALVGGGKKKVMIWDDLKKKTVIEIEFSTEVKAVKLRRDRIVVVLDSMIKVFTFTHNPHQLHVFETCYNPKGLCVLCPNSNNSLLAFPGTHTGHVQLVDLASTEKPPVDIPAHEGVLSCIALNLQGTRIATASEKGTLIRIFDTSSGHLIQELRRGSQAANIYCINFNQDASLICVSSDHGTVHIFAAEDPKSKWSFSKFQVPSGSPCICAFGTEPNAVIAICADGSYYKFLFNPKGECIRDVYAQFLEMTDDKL
Sequence of WIPI3-Δloop, Q5MNZ6 R109Q (Q5MNZ6 other isoform, or with tags, fused parts or gaps R109Q | mutant): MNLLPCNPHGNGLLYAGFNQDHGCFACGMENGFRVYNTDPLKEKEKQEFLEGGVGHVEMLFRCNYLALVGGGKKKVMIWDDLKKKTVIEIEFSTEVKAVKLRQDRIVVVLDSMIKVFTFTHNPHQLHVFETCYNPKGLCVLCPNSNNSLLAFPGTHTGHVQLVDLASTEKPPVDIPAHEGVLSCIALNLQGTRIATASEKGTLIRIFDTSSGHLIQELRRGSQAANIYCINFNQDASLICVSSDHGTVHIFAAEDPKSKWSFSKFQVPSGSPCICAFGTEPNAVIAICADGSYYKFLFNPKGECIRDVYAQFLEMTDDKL

Row | Kd [µM] | Substance
1 | 31.6 | WIPI3-Δloop, Q5MNZ6 F98A
2 | 244 | WIPI3-Δloop, Q5MNZ6 F125A
3 | 40 | WIPI3-Δloop, Q5MNZ6 I96A
4 | 72.5 | WIPI3-Δloop, Q5MNZ6 R62A
5 | 52.6 | WIPI3-Δloop, Q5MNZ6 R109Q
6 | 76.1 | WIPI3-Δloop, Q5MNZ6 Y65A
